Key:
[1] = target: Bac-F; assay: BIAcore, monoclonal antibody vs Bac-F (1:1)
[2] = target: T1, RSV F glycoprotein (NUF4) (respiratory syncytial virus (strain not …)); assay: BIAcore, monoclonal antibody vs NUF4 (1:1)
[3] = target: T1, RSV F glycoprotein (NUF4); assay: BIAcore, monoclonal antibody vs NUF4 (2:1)
[4] = target: T1, RSV F glycoprotein (NUF4); assay: ITC, NUF4 titrated into antibody

B1: A4B4 (monoclonal antibody) (antibody, V domains shown)
VH: QVTLRESGPALVKPTQTLTLTCTFSGFSLSTAGMSVGWIRQPPGKALEWLADIWWDDKKHYNPSLKDRLTISKDTSKNQVVLKVTNMDPADTATYYCARDMIFNFYFDVWGQGTTVTVSS
VL: DIQMTQSPSTLSASVGDRVTITCSASSRVGYMHWYQQKPGKAPKLLIYDTFFLDSGVPSRFSGSGSGTEFTLTISSLQPDDFATYYCFQGSGYPFTFGGGTKLEIK
[1]
  number in parentheses after KD (ratio to SYNAGIS, which has 1): 195 fold
[2]
  number in parentheses after KD (ratio to SYNAGIS, which has 1): 15 fold
[3]
  number in parentheses after KD (ratio to SYNAGIS, which has 1): 156 fold
[4]
  ΔHb: 92.8 kJ/mol

Source: patent EP2338512A1 (MedImmune, LLC, dated 2011)
